Biological target: 10042.05.SOSIP trimer (recombinant HIV-1 Env trimer 10042.05 from subject VC10042, cleaved SOSIP form) (HIV-1)
Experiment: SEC + native gel or EMSA; Superdex 200 16/600 pg SEC after lectin and ion exchange steps; fractions and final preparation on blue native PAGE; analytical SEC as QC

“10042.05.SOSIP trimer (recombinant HIV-1 Env trimer 10042.05 from subject VC10042, cleaved SOSIP form) (complex)” gave a stoichiometry N of 3.
